Measured values published in article PMC10006412.

Biological target: Newcastle disease virus phosphoprotein (P protein) (Newcastle disease virus)
Test: cryo-EM structure

Substance “Newcastle disease virus phosphoprotein (P protein) (natural protein)” has a stoichiometry N of 4.
